Test results reported in patent US20130071400A1, “LINGO binding molecules and Pharmaceutical Use Thereof” (NOVARTIS AG, priority 2006, published 2013).
One block for each molecule: values may come before it.

How the values were obtained:
[1] = tested on: freshly isolated rat OPCs; assay: Primary oligodendrocyte differentiation assay; format: cell-based; settings: 100 nM IgG4, 3 days in DMEM/CNTF/T3 medium; three independent experiments (FIG. 5)
Experimental: A) Freshly isolated OPCs are treated with 100 nM 4784, 4785 or control IgG4 3207 for 3 days in DMEM/CNTF/T3 medium followed by staining with the anti-04 antibody to visualise immature and mature oligodendrocytes (larger, more diffuse labeling) and the nucleic acid dye DAPI (4′,6-diamidin-2′-phenyl-indol-dihydrochloride) to visualise cell nuclei (smaller circular dots). Oligodendrocytes bearing highly arborised and extended processes and myelin sheet-like structures are considered to have a mature morphology and are indicated with white arrows. Anti-LINGO-1 antibody treatment results in an increase in the proportion of O4-positive cells with a mature morphology whereas treatment with control IgG4 3207 has no effect.
B) The proportion of total (left graph) and mature (right graph) oligodendrocytes is quantified in three independent experiments (1, 2, 3). The left bar graph depicts the percentage of DAPI-stained nuclei associated with O4-staining and the right bar graph depicts the percentage of O4-positive cells with a mature morphology (mean of triplicates+STD). […]
Enriched populations of OPCs are isolated from OFA P3 rats. […] To assess the purity of the cultures with respect to the oligodendrocyte lineage, the percentage of cells that are stained with the anti-04 antibody is quantified after 7 days of culture in SATO medium. […]

[2] = target: T1, cell surface LINGO-1 in CHO-K1-hLINGO-1 cells (Homo sapiens, UniProt Q96FE5); assay: Downregulation of cell surface LINGO-1 (anti-V5 detection, TMB-ELISA); format: cell-based; settings: 100 nM IgG4, 24 hrs at 37° C., CHO-K1-hLINGO-1 cells (FIG. 6A)
T1 construct: expressed in transfected cells
T1 sequence (Q96FE5 34-614 isoform Q96FE5-2): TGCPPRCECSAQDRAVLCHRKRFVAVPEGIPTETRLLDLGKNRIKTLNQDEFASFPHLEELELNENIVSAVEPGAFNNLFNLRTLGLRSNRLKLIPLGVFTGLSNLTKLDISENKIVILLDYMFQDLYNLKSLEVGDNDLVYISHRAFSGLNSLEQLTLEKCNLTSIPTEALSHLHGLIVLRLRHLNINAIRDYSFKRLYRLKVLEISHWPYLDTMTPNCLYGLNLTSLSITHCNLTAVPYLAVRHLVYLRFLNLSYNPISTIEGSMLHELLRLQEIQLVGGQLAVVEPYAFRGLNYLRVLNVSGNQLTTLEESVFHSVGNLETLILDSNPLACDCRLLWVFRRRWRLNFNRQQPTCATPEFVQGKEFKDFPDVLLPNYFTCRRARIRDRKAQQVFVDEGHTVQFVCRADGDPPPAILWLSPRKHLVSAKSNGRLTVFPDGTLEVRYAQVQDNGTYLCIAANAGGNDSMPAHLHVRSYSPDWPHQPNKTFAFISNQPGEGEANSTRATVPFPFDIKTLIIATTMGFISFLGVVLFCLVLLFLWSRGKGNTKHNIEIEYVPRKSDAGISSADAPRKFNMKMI
Experimental: A) Untransfected CHO-K1 or CHO-K1-hLINGO-1 cells are incubated at 37° C. for 24 hrs with 100 nM 4784, 4785 and 3207 and LINGO-1 detected at the cell surface by a further incubation at room temperature for 30 min with the anti-V5 antibody. The cells are fixed with 4% PFA, blocked with BSA and bound anti-V5 antibody detected using an anti-mouse-IgG (Fc specific)-POD conjugate that is subsequently developed using a 1-Step™ Turbo TMB ELISA kit. The absorbance at 450 nm is taken as a measure of the amount of LINGO-1 at the cell surface (mean of triplicates±STD). A very low level of anti-V5 antibody binding is observed to untransfected CHO-K1 cells. Incubation of CHO-K1-hLINGO-1 cells with anti-LINGO-1 antibodies but not the control IgG4 3207 result in a significant reduction in the amount of LINGO-1 at the cell surface **p<0.01, one-way ANOVA with a Holm-Sidak comparison to the absorbance following incubation with the control IgG4 3207.
To determine the effect of anti-LINGO-1 antibodies on the amount of cell surface LINGO-1, untransfected CHO-K1 or CHO-K1-hLINGO-1 cells (see Example 1) are incubated at 37° C. for 24 hrs with 100 nM 4784, 4785 or 3207 and cell surface LINGO-1 is subsequently detected with an anti-V5 antibody followed by an anti-mouse IgG (Fc specific)-POD conjugate developed with a 1-Step™ Turbo TMB-ELISA kit (Pierce) (FIG. 6A).

- amount of cell surface LINGO-1 (absorbance at 450 nm) [2]: significantly downregulate
B1: IgG4 4785: monoclonal human anti-LINGO-1 IgG4 antibody; VL SEQ ID NO: 6, VH SEQ ID NO: 7 (antibody, V domains shown)
VH: QVQLQQSGPGLVKPSQTLSLTCAISGDSVSDNSAAWSWIRQSPGRGLEWLGLIYLRSKWDNDYAVSVKSRITINPDTSKNQFSLQLNSVTPEDTAVYYCARTGRADEFDVWGQGTLVTVSS
VL: DIVLTQPPSVSGAPGQRVTISCSGSSSNIGNNYVSWYQQLPGTAPKLLISRNSKRPSGVPDRFSGSKSGTSASLAITGLQSEDEADYYCSTYDTFSIVFGGGTKLTVLG
modifications: IgG4; 4785 VH; 4785 VL
- proportion of oligodendrocytes (O4-positive cells) with a mature morphology [1]: significantly increase

- amount of cell surface LINGO-1 (absorbance at 450 nm) [2]: significantly downregulate
B2: IgG4 4784: monoclonal human anti-LINGO-1 IgG4 antibody; VL SEQ ID NO: 4, VH SEQ ID NO: 5 (antibody, V domains shown)
VH: QVQLKESGPALVKPTQTLTLTCTFSGFSLSSSGVGVGWIRQPPGKALEWLAHIGSDDDKYYSTSLKTRLTISKDTSKNQVVLTMTNMDPVDTATYYCARNQQYGDGYPGYFDYWGQGTLVTVSS
VL: DIELTQPPSVSVAPGQTARISCSGDNIGNYYVYWYQQKPGQAPVLVIYEDTNRPSGIPERFSGSNSGNTATLTISGTQAEDEADYYCQSYDNLHEQVFGGGTKLTVLG
modifications: IgG4; 4784 VH; 4784 VL
- proportion of oligodendrocytes (O4-positive cells) with a mature morphology [1]: significantly increase
